Test system: K4 kissing-loop RNA reporter
Assay: apparent KD of K4 kissing-loop reporter; higher = weaker reporter binding
Settings: Eterna round: R107
Protocol: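 RNA-MaP round R107: designed RNA switches with theophylline, tryptophan, arginine or FMN aptamers are transcribed on-chip within common flanks. They are titrated with a labelled K4 kissing-loop RNA reporter in RNA-MaP buffer (100 mM Tris pH 7.5, 80 mM KCl, 4 mM MgCl2), without ligand or with the indicated ligand. Median apparent KD per design.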

[1] = input ligand: theophylline 20 uM
[2] = input ligand: tryptophan 2.4 mM
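Further: bound reporter read as fluorescence of individual clusters on recovered sequencing chips by microscopy, with normalized cluster intensities fitted with a binding model.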

Sequence | apparent KD of K4 kissing-loop reporter (input ligand: FMN 200 uM) [nM] | apparent KD of K4 kissing-loop reporter (input ligand: arginine 13.2 mM) [nM] | apparent KD of K4 kissing-loop reporter (input ligand: none) [nM] | apparent KD of K4 kissing-loop reporter [1] [nM] | apparent KD of K4 kissing-loop reporter [2] [nM]
UACCUGCUGUCAGGAUAUGAGUGCAGUGAUGUUGCACUCAACGUAACCAUCUUGAAAUACAAACACUCAGAAGGGACGCACGAAG [Isattema] | 183 | 95.9 | 140 | 167 | 191
UACGCUGCCUGAGGAUAUAGAAACGAGUGAUGUUCGUGGAUAAGAGCCAGUGAUGUUGGGUUAUUUCUAGAAGGCAGGUAAAGUA [Exclusion FMN B GF6] | 106 | 89.1 | 102 | 95.8 | 100
UACUAUAGUGAUGUUAUAGAUAAAACAGAUACCAGUGUUACAUAACACCCUUGGCAGCUGAAAAGGGAAAGUAUAAAUGUGUAUU [AstrosSSTHe-A#1newdesignED] | 156 | 127 | 133 | 125 | 129
UACUAUAUUCUGUCGUUUUUAUUAGUUUGUCAGGAUAUCGUUUAUUCGAGAAGGGACACUGUCUAGUGAUGUUAGACAUUUCUUU [#04 K4 FMN A Exclusion] | 68.3 | 90.7 | 88.5 | 87 | 75.5
UAGAGGAGACUCUAAUUCCUUAAGUCCGAAGGAGCGACCCAAUGGUCAGGUAGGUCGCGGACAAUCCUAGUGAUGUUAGGAUCUG [Arg A SS t5a] | 141 | 136 | 160 | 170 | 129
UAGAUGUUGUAAGAUAUUGAUAGUCGGGAAGGAGCGCUCACAAUAGCAGGUAGGUCGCCCGACAGUGUUAGGAGUGAUGUUCCUU [7.)] | 92.9 | 119 | 97.9 | 121 | 83.5
UAGCGGGCGAUUCGACGUGCGUCCAGUCAUCGAGGACCGGUACGGCCGCCACUCGCCGGAGUGAUGUUCCGGUACGUCAUAUAAU [theeternabot_sameState_KL_Trp_A_35] | 406 | 358 | 398 | 422 | 197
UAGCGGUGGAGGCCACCGCUAUUCUGAGAAGGAGCGCAGAUGACUGCAGGUAGGUCGCUUAGAGCUUGCAGUGAUGUUGCAAGUU [Araatlaqu] | 191 | 144 | 191 | 223 | 177
UAGUCAUACAGAGGAUAUCGUAUGAGUGAUGUUCAAGUGCGUACAUCAACUUGAUGUACAGAUAGACGAGAAGGCUGUAUGACUA [FMB B SS t6] | 303 | 382 | 487 | 449 | 492
UAGUCCUAGUGAUGGUCAUCACGUGGCGGGCGAGGACCGGUACGGCCGCCACUCGACUUUGCAGUGAUGUUGCAAACCGGACAAU [Exclusion - Tryptophan A (Freestyle 20)] | 144 | 134 | 132 | 136 | 191
UAGUCCUAGUGAUGGUUAUCACGUGGUGGGCGAGGACCGGUACGGCCGCCACUCGACUUUGCAGUGAUGUUGCAAACCGGACAAU [Exclusion - Tryptophan A (Freestyle 18)] | 228 | 278 | 237 | 287 | 237
UAGUGAAUAGAAGGAUAUUGAUAUGAAAGAUGCAGUGAUGUUGCCCGUAGCAGUCAGUAAUACGUGCAAGAAGGUCUGUGCGCGA [theeternabot_exclusion_KL_FMN_B_3] | 65.2 | 95.4 | 69.2 | 127 | 62.4
UAGUGAUGCUAUGUUAGGUUUUUUAGGGAAGGAGCGCCAAAGAAGGCAGGUAGGUCGCCCUAUAUUCCCAGUGAUGUUGGGUAUU [Skye_Ex_AA] | 64.8 | 50.6 | 74.9 | 93.6 | 65.5
UAGUGUCGCGCAGGAUAUACUGAUUGGAGUGAUGUUCCAAACAUGAACGUGAGACUUUUACAAGAAGUAGAAGGGCGUGAGACAU [Exclusion FMN B GF 21] | 276 | 320 | 405 | 393 | 404
UAUAAUUCGGCGGCCGCCACUGACCAUAGCCUUCGAUGGCCAGUGAUGUUGGCCUCUGGCUCUAACAGGACCGGGCCGAAUUGCG [Aririmaus] | 228 | 179 | 260 | 277 | 135
UAUACUAGACAAGAGAGAAUUCUCUCAAGAGAGGAUAUCCGAAUUCGGAGAAGGCUCUCUCAGUGAUGUUGGGUAUAGUCUAGAA [AK7 SS FMN A] | 260 | 222 | 323 | 389 | 299
UAUAUACAUUUAUUAAUUAAAGGUUCAGAAGGAGCGUGAAUUAACACAGGUAGGUCGCUGAGCGAGUGAUGUUCGCUAUAUGGUA [JR_ExcArginiA_Sub005] | 66.3 | 72.6 | 70.5 | 87.1 | 55.7
UAUCAGAUUACUGAUACCAGUCUAAAGACAGUGAUGUUGUCUGAUCGACCACGAUCAAAGGACCCUUGGCAGCAGUGUACUAUUC [#29 K4 Theophylline B Same State] | 197 | 203 | 192 | 188 | 199
UAUCUUUGCUGAAGGAGCGAGCAUGUUGGAGUGAUGUUCCGAGCGAGUGAUGUUCGCAUAGCUCAGGUAGGUCGCAGUGGGAGGA [Same State Arginie B GF 16] | 129 | 111 | 147 | 164 | 135
UAUGGUCCAUCAAGAGUAGUGAUGUUAUAACGAGGACCGGUACGGCCGCCACUCGAGGCCGUAAUACUCGAUCGGAUGCUGAGUG [theeternabot_exclusion_KL_Trp_A_28] | 815 | 819 | 1180 | 794 | 816
UAUGUACGCGGGUAACGGUACAUCGAGGAAGGAGCGUGCGCAGGCACAGGUAGGUCGCCUCAGCGCACGAGUGAUGUUCGUGGGC [Rere] | 221 | 243 | 271 | 298 | 280
UAUUAAUAAUUAUUCUAGUGAUGUUAGAUACGAGGACCGGUACGGCCGCCACUCGCUUAUUGGUUUAUAAAUUUUAUAUUAUUUA [JR_SSTryptoA_Sub017] | 185 | 207 | 186 | 208 | 164

Sequence | apparent KD of K4 kissing-loop reporter (input ligand: FMN 200 uM) [nM] | apparent KD of K4 kissing-loop reporter (input ligand: arginine 13.2 mM) [nM] | apparent KD of K4 kissing-loop reporter (input ligand: none) [nM] | apparent KD of K4 kissing-loop reporter [1] [nM] | apparent KD of K4 kissing-loop reporter [2] [nM]
UAUUAAUAUUUUUCAGUGAUGUUAAUUGAUACCAGCCCGAAACCGGGCCCUUGGCAGCGAGUGAUGUUGGUUGUCAGCAUAAAUA [KL-XTheo-A13] | 860 | 596 | 836 | 676 | 667
UAUUUAAUUUUUAAUUUUUAAAUUGCUGAUACCAGAGCCAAUUGGCUCCCUUGGCAGCGGAUCGAGUGAUGUUCGUAUAAUUUAA [AK1 SS Theophylline A] | 30.5 | 66.4 | 35 | 62.2 | 33.6
UAUUUGAUGUCAGGAUAUCGUAUACGAGUGAUGUUCGUAUUUCUACUAUAGAUUAUUUAAAUUUUUCGAGAAGGGACAACAUUUA [#04 K4 FMN B Same State] | 151 | 93.3 | 115 | 140 | 122
UCACGUGCCAGUGAUGUUGGCGUACGUGAUACCAGAACAAUAAAGUUCCCUUGGCAGCACAAAUAUGCCAAGUUAGAUGUAUGAU [Exclusion Theophylline A GF 3] | 121 | 118 | 123 | 119 | 113
UCAUAUACCAGAAGGAGCGUGCAGGACGAAUUAAUCAUCGACCUUAGUGAUGUUAAGGACGCACAGGUAGGUCGCUGGUAUAUGA [Arg B SS t4] | 444 | 431 | 479 | 484 | 439
UCCAAUAUUUAUUGAUCCGCCUCGCAUCAACGAGGACCGGUACGGCCGCCACUCGUGCCUAGGUAGUGAUGUUACUUAGUUUACU [theeternabot_sameState_KL_Trp_A_32] | 93.2 | 162 | 114 | 188 | 196
UCCUAGGCUCGAAAGAGCCUAGGAUUAUCUCAGGAUAUCCGGAAACGGAGAAGGGAGAAACUAGUGAUGUUAGGGAUUCCCUAUU | 574 | 184 | 213 | 259 | 137
UCCUAGGCUCGAAAGAGCCUAGGUAAGACUCAGGAUAUCUGGAAACAGAGAAGGGAGCUACUAGUGAUGUUAGGAAUUCCCAUUU | 116 | 94.7 | 89 | 76.2 | 85.1
UCCUCGAAUCGACCUCGAAAGAGGAUGGAUACCAGUCUUGAUAAAGACCCUUGGCAGCCAGUGAUGUUGGAACGAGGUAAAUAAA [#SwitchBubble 19 #K4Late] | 531 | 365 | 571 | 535 | 359
UCCUGCAAUCGCCCACGAAAGUGGAUUGAUACCAGAGUCGAAAGACUCCCUUGGCAGCGAGUGAUGUUCGAAGCAGGUAAAUAAA | 326 | 503 | 562 | 540 | 459
UCCUUAUCGCGGUCAUAAAGCCUAUAAAACAAGGAUAUCUCAUCAGAGAGAAGGUGUGAGUGAUGUUCAAAGGCCACCACGGGUU [theeternabot_sameState_KL_FMN_A_47] | 654 | 724 | 840 | 453 | 818
UCGAAGGAUGGAAGGAGCGCUCGUCAGCCCUGCGAGUGAUGUUCGUGGGUAAAUAGUCGCGAGCAGGUAGGUCGCCAUCUUGAGC [Ritera] | 128 | 111 | 130 | 111 | 116
UCGACAGUGAACGAUACCAGCGUCACGUGGCUGGUGGUCACAUGAGUGAUGUUCAUGUAACGCCCUUGGCAGCGUGCACGUAUCA [KL-XTheo-B8] | 141 | 127 | 133 | 125 | 129
UCGAUGGCCAGCGAUACCAGCCCAGUGAUGUUGGGCACAUGGUUGCGGGAAAUCCCAUUGGGCCCUUGGCAGCGCUUGCAUGGGU [Dizaisa] | 148 | 121 | 140 | 120 | 125
UCGCCAAAGUCGGCCGCCACUCCGGGCCCUAUAAAUGGGCGCAGUGAUGUUGCGGCUAGGCCUCUGAGGACCGGGACUUUGUAGA [Esenusza] | 116 | 0.509 | 152 | 233 | 152
UCGGCAAAGUCGGCCGCCACUCCGGGCCCUAUAAAUGGGCGCAGUGAUGUUGCGGCUAGGCCUCUGAGGACCGGGACUUUGUAGA [Gebive] | 114 | 91.7 | 112 | 146 | 204
UCGGCAGUGAACGAUACCAGCGUCACGUGGCUGGUGGUCACAUGAGUGAUGUUCAUGUAACGCCCUUGGCAGCGUGCGCGUACCG [KL-XTheo-B11] | 113 | 98.1 | 107 | 94.7 | 103
UCGGGCGGCUGAAGGAGCGGGCGGGCCCGAGUGAUGUUCGGGUGGGCCGUGAGGCCCGGAGCCCAGGUAGGUCGCGGUUCCGCCC [#2 Same State - Arginine B Attempt #23 (HarryS)] | 200 | 153 | 188 | 168 | 175
UCGUCUGUGUGAGGAUAUCCAAGCGAGCUGCGUAAAGGCGCGGCGUUUGGAGUGAUGUUCCAGGCAGGAGAAGGCGCACGGGCUU [Maleisar] | 231 | 296 | 245 | 470 | 292
UCUCUUCUCAGUGAUGUUGAGUAAUCGGAAGGAGCGCGUGAAAACGCAGGUAGGUCGCCGAUUUGUGAAGUAUCUUCGCAAGAGA [Arginine A K4 26] | 352 | 341 | 412 | 441 | 300
UCUGAAGGUGGAGGAUAUUGAUUGAAUCUUGGUCAGGAGUGAUGUUCCGGGAAGCCUUGGAUUCAUCGAGAAGGCCAAGGAUAGU [#10 K4 FMN B Same State] | 144 | 259 | 243 | 306 | 225
UCUGCAAAGUCGGCCGCCACUCCGGGCCCUAUAAAUGGGCGCAGUGAUGUUGCGGCUAGGCCUCUGAGGACCGGGACUUCGUAGA [Somale] | 62.8 | 52.1 | 54.7 | 166 | 107
